B1: P2RY14 (parent)
chain: KKIFKSHLKSSRNSTSVKKKSSRN

Variants of: B1
Assay: protein stability index of a GFP-peptide fusion (GPS, HEK-293T) (PSI 1-6); higher = more stable
Conditions: c terminus: a fixed tail appended
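Note: lentivirally expressed fusions sorted by FACS into six bins by GFP to DsRed ratio, PSI derived from sequencing read proportions per bin multiplied by bin number.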

| Variant | protein stability index |
| --- | --- |
| KKIFKSHLKSSRNSTVVKKKSSRN | 3.82 |
| KKIFKSHLKSSRNSTCVKKKSSRN | 3.38 |
| KKIFKSHLKSSRNSTYVKKKSSRN | 4.28 |
| KKIFKSHLKSSRNSTNVKKKSSRN | 4.26 |
| KKIFKSHLKSSRNSTMVKKKSSRN | 4.35 |
| KKIFKSHLKSSRNSTGVKKKSSRN | 4.1 |
| KKIFKSHLKSSRNSTRVKKKSSRN | 4.22 |
| KKIFKSHLKSSRNSTQVKKKSSRN | 4.48 |
| KKIFKSHLKSSRNSTWVKKKSSRN | 3.69 |
| KKIFKSHLKSSRNSTTVKKKSSRN | 4.22 |
| KKIFKSHLKSSRNSTPVKKKSSRN | 4.26 |
| KKIFKSHLKSSRNSTEVKKKSSRN | 4.13 |
| KKIFKSHLKSSRNSTAVKKKSSRN | 4.16 |
| KKIFKSHLKSSRNSTKVKKKSSRN | 4.07 |
| KKIFKSHLKSSRNSTIVKKKSSRN | 3.84 |
| KKIFKSHLKSSRNSTFVKKKSSRN | 3.57 |
| KKIFKSHLKSSRNSTLVKKKSSRN | 4.14 |
| KKIFKSHLKSSRNSTHVKKKSSRN | 4.45 |
| KKIFKSHLKSSRNSTDVKKKSSRN | 4.08 |
| KKIFKSHLKSSRNSTSSKKKSSRN | 4.03 |
| KKIFKSHLKSSRNSTSAKKKSSRN | 4.29 |
| KKIFKSHLKSSRNSTSRKKKSSRN | 4.49 |
| KKIFKSHLKSSRNSTSKKKKSSRN | 4.02 |
| KKIFKSHLKSSRNSTSCKKKSSRN | 4.17 |

| Variant | protein stability index |
| --- | --- |
| KKIFKSHLKSSRNSTSQKKKSSRN | 4.06 |
| KKIFKSHLKSSRNSTSFKKKSSRN | 3.97 |
| KKIFKSHLKSSRNSTSYKKKSSRN | 3.99 |
| KKIFKSHLKSSRNSTSNKKKSSRN | 4.21 |
| KKIFKSHLKSSRNSTSTKKKSSRN | 4.41 |
| KKIFKSHLKSSRNSTSPKKKSSRN | 4.09 |
| KKIFKSHLKSSRNSTSLKKKSSRN | 4.02 |
| KKIFKSHLKSSRNSTSWKKKSSRN | 3.6 |
| KKIFKSHLKSSRNSTSGKKKSSRN | 3.73 |
| KKIFKSHLKSSRNSTSHKKKSSRN | 4.1 |
| KKIFKSHLKSSRNSTSIKKKSSRN | 3.59 |
| KKIFKSHLKSSRNSTSDKKKSSRN | 4.25 |
| KKIFKSHLKSSRNSTSMKKKSSRN | 4.12 |
| KKIFKSHLKSSRNSTSEKKKSSRN | 3.99 |
| KKIFKSHLKSSRNTTSVKKKSSRN | 4.33 |
| KKIFKSHLKSSRNMTSVKKKSSRN | 3.98 |
| KKIFKSHLKSSRNITSVKKKSSRN | 4.14 |
| KKIFKSHLKSSRNPTSVKKKSSRN | 4.43 |
| KKIFKSHLKSSRNNTSVKKKSSRN | 4.44 |
| KKIFKSHLKSSRNFTSVKKKSSRN | 3.84 |
| KKIFKSHLKSSRNQTSVKKKSSRN | 3.69 |
| KKIFKSHLKSSRNATSVKKKSSRN | 3.5 |
| KKIFKSHLKSSRNVTSVKKKSSRN | 3.84 |
| KKIFKSHLKSSRNDTSVKKKSSRN | 4.14 |

| Variant | protein stability index |
| --- | --- |
| KKIFKSHLKSSRNHTSVKKKSSRN | 4.35 |
| KKIFKSHLKSSRNCTSVKKKSSRN | 4.31 |
| KKIFKSHLKSSRNETSVKKKSSRN | 4.35 |
| KKIFKSHLKSSRNYTSVKKKSSRN | 4.1 |
| KKIFKSHLKSSRNKTSVKKKSSRN | 4.07 |
| KKIFKSHLKSSRNRTSVKKKSSRN | 4.36 |
| KKIFKSHLKSSRNLTSVKKKSSRN | 3.88 |
| KKIFKSHLKSSRNWTSVKKKSSRN | 3.44 |
| KKIFKSHLKSSRNGTSVKKKSSRN | 4.22 |
| KKIFKSHLKQSRNSTSVKKKSSRN | 3.83 |
| KKIFKSHLKNSRNSTSVKKKSSRN | 4.33 |
| KKIFKSHLKMSRNSTSVKKKSSRN | 4.01 |
| KKIFKSHLKWSRNSTSVKKKSSRN | 3.46 |
| KKIFKSHLKRSRNSTSVKKKSSRN | 4.18 |
| KKIFKSHLKPSRNSTSVKKKSSRN | 4.24 |
| KKIFKSHLKCSRNSTSVKKKSSRN | 4.03 |
| KKIFKSHLKVSRNSTSVKKKSSRN | 3.81 |
| KKIFKSHLKYSRNSTSVKKKSSRN | 3.54 |
| KKIFKSHLKHSRNSTSVKKKSSRN | 4.14 |
| KKIFKSHLKGSRNSTSVKKKSSRN | 3.81 |
| KKIFKSHLKESRNSTSVKKKSSRN | 4 |
| KKIFKSHLKISRNSTSVKKKSSRN | 3.59 |
| KKIFKSHLKASRNSTSVKKKSSRN | 4.08 |
| KKIFKSHLKFSRNSTSVKKKSSRN | 3.38 |

| Variant | protein stability index |
| --- | --- |
| KKIFKSHLKTSRNSTSVKKKSSRN | 4.17 |
| KKIFKSHLKDSRNSTSVKKKSSRN | 4.41 |
| KKIFKSHLKKSRNSTSVKKKSSRN | 4.15 |
| KKIFKSHLKLSRNSTSVKKKSSRN | 4.02 |
| KKIFKSHLKSSRNSTSVCKKSSRN | 3.34 |
| KKIFKSHLKSSRNSTSVWKKSSRN | 2.98 |
| KKIFKSHLKSSRNSTSVLKKSSRN | 3.86 |
| KKIFKSHLKSSRNSTSVMKKSSRN | 4.1 |
| KKIFKSHLKSSRNSTSVDKKSSRN | 3.98 |
| KKIFKSHLKSSRNSTSVYKKSSRN | 3.66 |
| KKIFKSHLKSSRNSTSVQKKSSRN | 3.67 |
| KKIFKSHLKSSRNSTSVPKKSSRN | 4.29 |
| KKIFKSHLKSSRNSTSVIKKSSRN | 3.7 |
| KKIFKSHLKSSRNSTSVHKKSSRN | 4.07 |
| KKIFKSHLKSSRNSTSVGKKSSRN | 3.99 |
| KKIFKSHLKSSRNSTSVEKKSSRN | 3.98 |
| KKIFKSHLKSSRNSTSVVKKSSRN | 3.74 |
| KKIFKSHLKSSRNSTSVSKKSSRN | 4.21 |
| KKIFKSHLKSSRNSTSVNKKSSRN | 4.27 |
| KKIFKSHLKSSRNSTSVRKKSSRN | 3.88 |
| KKIFKSHLKSSRNSTSVFKKSSRN | 3.54 |
| KKIFKSHLKSSRNSTSVAKKSSRN | 3.8 |
| KKIFKSHLKSSRNSTSVTKKSSRN | 4.17 |
| KKIFKSHLKSSRVSTSVKKKSSRN | 4.22 |

| Variant | protein stability index |
| --- | --- |
| KKIFKSHLKSSRGSTSVKKKSSRN | 4.11 |
| KKIFKSHLKSSRESTSVKKKSSRN | 3.55 |
| KKIFKSHLKSSRKSTSVKKKSSRN | 3.95 |
| KKIFKSHLKSSRDSTSVKKKSSRN | 3.68 |
| KKIFKSHLKSSRASTSVKKKSSRN | 4.12 |
| KKIFKSHLKSSRLSTSVKKKSSRN | 3.3 |
| KKIFKSHLKSSRCSTSVKKKSSRN | 3.74 |
| KKIFKSHLKSSRWSTSVKKKSSRN | 3.41 |
| KKIFKSHLKSSRYSTSVKKKSSRN | 3.6 |
| KKIFKSHLKSSRFSTSVKKKSSRN | 3.77 |
| KKIFKSHLKSSRSSTSVKKKSSRN | 4.89 |
| KKIFKSHLKSSRISTSVKKKSSRN | 4.15 |
| KKIFKSHLKSSRHSTSVKKKSSRN | 3.52 |
| KKIFKSHLKSSRPSTSVKKKSSRN | 3.45 |
| KKIFKSHLKSSRTSTSVKKKSSRN | 4.5 |
| KKIFKSHLKSSRQSTSVKKKSSRN | 4.2 |
| KKIFKSHLKSSRRSTSVKKKSSRN | 4.38 |
| KKIFKSHLKSSRMSTSVKKKSSRN | 3.64 |
| KKIFKSHLKSSDNSTSVKKKSSRN | 4.43 |
| KKIFKSHLKSSQNSTSVKKKSSRN | 4.16 |
| KKIFKSHLKSSGNSTSVKKKSSRN | 3.87 |
| KKIFKSHLKSSYNSTSVKKKSSRN | 3.39 |
| KKIFKSHLKSSMNSTSVKKKSSRN | 4.03 |
| KKIFKSHLKSSTNSTSVKKKSSRN | 4.37 |

| Variant | protein stability index |
| --- | --- |
| KKIFKSHLKSSLNSTSVKKKSSRN | 4.11 |
| KKIFKSHLKSSINSTSVKKKSSRN | 3.8 |
| KKIFKSHLKSSSNSTSVKKKSSRN | 3.94 |
| KKIFKSHLKSSANSTSVKKKSSRN | 4.17 |
| KKIFKSHLKSSFNSTSVKKKSSRN | 3.83 |
| KKIFKSHLKSSKNSTSVKKKSSRN | 4.03 |
| KKIFKSHLKSSCNSTSVKKKSSRN | 3.6 |
| KKIFKSHLKSSHNSTSVKKKSSRN | 3.93 |
| KKIFKSHLKSSPNSTSVKKKSSRN | 4.15 |
| KKIFKSHLKSSENSTSVKKKSSRN | 4.08 |
| KKIFKSHLKSSNNSTSVKKKSSRN | 4.17 |
| KKIFKSHLKSSWNSTSVKKKSSRN | 3.74 |
| KKIFKSHLKSSVNSTSVKKKSSRN | 4.45 |
| KKIFKSHLKSSRNSRSVKKKSSRN | 4.05 |
| KKIFKSHLKSSRNSCSVKKKSSRN | 3.63 |
| KKIFKSHLKSSRNSISVKKKSSRN | 4.04 |
| KKIFKSHLKSSRNSVSVKKKSSRN | 3.55 |
| KKIFKSHLKSSRNSLSVKKKSSRN | 3.98 |
| KKIFKSHLKSSRNSWSVKKKSSRN | 3.46 |
| KKIFKSHLKSSRNSNSVKKKSSRN | 4.45 |
| KKIFKSHLKSSRNSYSVKKKSSRN | 3.6 |
| KKIFKSHLKSSRNSHSVKKKSSRN | 4.01 |
| KKIFKSHLKSSRNSASVKKKSSRN | 4.27 |
| KKIFKSHLKSSRNSFSVKKKSSRN | 3.52 |

| Variant | protein stability index |
| --- | --- |
| KKIFKSHLKSSRNSQSVKKKSSRN | 4.09 |
| KKIFKSHLKSSRNSPSVKKKSSRN | 4.28 |
| KKIFKSHLKSSRNSKSVKKKSSRN | 3.84 |
| KKIFKSHLKSSRNSGSVKKKSSRN | 4.31 |
| KKIFKSHLKSSRNSMSVKKKSSRN | 4.01 |
| KKIFKSHLKSSRNSSSVKKKSSRN | 4.16 |
| KKIFKSHLKSSRNSDSVKKKSSRN | 4.28 |
| KKIFKSHLKSSRNSESVKKKSSRN | 4.35 |
| KKIFKSHLKSQRNSTSVKKKSSRN | 4.31 |
| KKIFKSHLKSARNSTSVKKKSSRN | 3.93 |
| KKIFKSHLKSCRNSTSVKKKSSRN | 3.93 |
| KKIFKSHLKSNRNSTSVKKKSSRN | 3.96 |
| KKIFKSHLKSKRNSTSVKKKSSRN | 3.89 |
| KKIFKSHLKSHRNSTSVKKKSSRN | 4.67 |
| KKIFKSHLKSERNSTSVKKKSSRN | 4.35 |
| KKIFKSHLKSIRNSTSVKKKSSRN | 3.98 |
| KKIFKSHLKSPRNSTSVKKKSSRN | 4.3 |
| KKIFKSHLKSTRNSTSVKKKSSRN | 4.22 |
| KKIFKSHLKSVRNSTSVKKKSSRN | 4.31 |
| KKIFKSHLKSRRNSTSVKKKSSRN | 4.44 |
| KKIFKSHLKSGRNSTSVKKKSSRN | 4.26 |
| KKIFKSHLKSYRNSTSVKKKSSRN | 3.37 |
| KKIFKSHLKSWRNSTSVKKKSSRN | 3.36 |
| KKIFKSHLKSLRNSTSVKKKSSRN | 4.12 |

| Variant | protein stability index |
| --- | --- |
| KKIFKSHLKSFRNSTSVKKKSSRN | 3.69 |
| KKIFKSHLKSDRNSTSVKKKSSRN | 4.33 |
| KKIFKSHLKSMRNSTSVKKKSSRN | 3.62 |
| KKIFKSHLKSSRNSTSVKHKSSRN | 3.99 |
| KKIFKSHLKSSRNSTSVKVKSSRN | 4.31 |
| KKIFKSHLKSSRNSTSVKDKSSRN | 3.6 |
| KKIFKSHLKSSRNSTSVKSKSSRN | 3.9 |
| KKIFKSHLKSSRNSTSVKFKSSRN | 3.13 |
| KKIFKSHLKSSRNSTSVKPKSSRN | 3.34 |
| KKIFKSHLKSSRNSTSVKNKSSRN | 3.98 |
| KKIFKSHLKSSRNSTSVKAKSSRN | 3.98 |
| KKIFKSHLKSSRNSTSVKQKSSRN | 4 |
| KKIFKSHLKSSRNSTSVKCKSSRN | 3.34 |
| KKIFKSHLKSSRNSTSVKMKSSRN | 3.92 |
| KKIFKSHLKSSRNSTSVKLKSSRN | 3.5 |
| KKIFKSHLKSSRNSTSVKGKSSRN | 4.02 |
| KKIFKSHLKSSRNSTSVKEKSSRN | 3.98 |
| KKIFKSHLKSSRNSTSVKRKSSRN | 4.27 |
| KKIFKSHLKSSRNSTSVKTKSSRN | 3.62 |
| KKIFKSHLKSSRNSTSVKIKSSRN | 3.59 |

Source: the supplement of paper PMC10567573
